Assay: soluble fraction after stress (log2 fold change); higher = more stays soluble; pooled small domains, quantitative proteomics
Settings: stress: 75 degC
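Further: 20 min heating vs room temperature control held 20 min.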

Sequence | soluble fraction (log2)
HMAGTWQDQGNGQWKYQNDDGSYATGWIEDSGKSYYLDANGIMLANTTTPDGKQVGPDGALIP | -0.15
HMAHETIDVAALRVGMFVQLDLGWLSHPFPLSSFRISSEDQIATIRALGLKRVRWSSEQSDS | -4.58
HMAHPRTHEALNPLWEKYLGPNAGNDFFLSGGTSLKALMFLKDLEKTLNKRIAIHAFFKDPTYEHVVSD | -0.84
HMAHTGGNTLTREKAVSVRSASDALLFEIHWNETPREDILSTREEKVDGKTYSIITIRTGKGREDHYYLLS | -1.35
HMAHYPGKVNNELVEFIRSEQRKTPHMTLTGLNRKLQRTYDLTLSESTVRKLVEAETILPLAREPD | -0.25
HMAIDLPVTTVNGKDYYYYDVQPKETIFSLSQRLGISREEIISYNPGVDGGLKAYTRLYFPVESGL | -1.21
HMAIDLSLIPGNLLRELHGAVEDGDMYRIRELIRSISAVDEKVGKELLLLAERYDYERLLELVND | -0.887
HMAIDWVQIKAEYISGTMSASKLAEKHGVSVYAIRKRSGKERWQELRRQNQSETANKIAEKI | -2.16
HMAIDYYQTLINLGYKLQDRGDYWQTSAIHRGGDNPTALQIYKNTGVWKDYVSGGGFKPFKALVEKSD | -0.944
HMAIELTPRQLDIIELVRKHAPITGEQIAELLGVTRPSIRSDLGLLVMLGYIDAKPKVGYFAGPRM | -1.16
HMAIGSRLKVTTDATNLNIRSTPSTEGDIVGKAAHHEIVTLVEKTDDSWWKIKTNDGEEGYAYAQYLSPV | -0.031
HMAIIQSNNIFKSQKEIVDEILVELDIPKDKWNFFHMLISSGYKDEFDTNRIYEIIQTNYNMMDR | -0.298
HMAILDTALDVLSMNLKDNYTSFQILRQAAIAGKIAFNLTEKNPLGGVIEVELTGDDLETWIEAATW | 0.183
HMAIMISINAKGEVAWNDQIISLDDLAQRFNAAGQQAQKPTVQLRADKESRYDMVAQVMSRASEAGLSDIA | -0.83
HMAIRLIKASREFNVGISTIVEFLEKKGHAIDSDPNSKIPDELYQLIEKEFQTEGSVKKAAKQI | -1.81
HMAITLEVAKKHLEMWLEAESEVAINQSYTIGGKSFTRANLAEIRKQIEYWSNKVAELENLA | -1.04
HMAITYETKVISGVNLRSAPSTSASVYQLIPKGENIHVVQKVNDYWLKVQTKDGKTGYISASSKYTNYIG | -2.7
HMAIWAVFYKNEPFNLKSFNSLTSYPGPKYKKTSFSNPGHALNLAKKLNLTFGTEDFQVVKLTQGTIV | -2.69
HMAKIEVENLEETILENLKANNGFMPYNDKTSPEEIYEVFHVSKKHFKNSLGGLMKKGLIFQNEKGTKL | -0.193
HMAKITERVMGSAALRDYDPNYLPDEVLKALDGYPPFDGYVYKDGILYARVKIGDTFFIIPPI | -2.53
HMAKKDVESTLGGRLRVARVRAGLTQVELARMLGMNSVSLSNVEGGRRGLSMKQLVRVAKILEVPVAYLLG | -2.36
HMAKMPSIIIMKDGVIRTSELEQIERDENWLNEEMKKQHIDNPEDVFLAEFWDGKVNFILQDGKIK | -0.0894
HMAKNDSGLNNHTFNTIRDALQKALTDGPQEAKKLTENLPFPADKIITVIRYLADHDEHFSLEDGIISLT | 0.609
HMAKNIEVPNLVGSTISVARNDLKQLGLHVIVRDSVWSEDKKIDTILEQFPEPGKKLKPEGVVQVVVSI | -0.909

Sequence | soluble fraction (log2)
HMAKNSVLTIELWNSTAFKWRKDTEPYSESMSVDFNRSVRLTDGISIMFSKFGFVPGIQYLIPLQT | -0.534
HMAKQQTTTTAHVVTTGETLYSIAQKNGISVEELKKSNNITSDKLRPGQTLHITKVSKTSSTAK | 0.87
HMAKRPRFEDVIKEINTEIQKRKGKWNLTILSWMDFDDVAQVIRIHIYRKWHLYDPSKPLGPWLNR | -0.339
HMAKSETAKIKATPYGWLRVRDTPSLNGAEIARVNSGDEYKVLEKETGWIKIKVSDTVEGWVSDAYIELS | -0.21
HMAKSKYETHVLPNLDKIIKWAKAGATAKEIAANLHIAYSTFRKYLDEGQEGDERYAALSAAFAQA | -0.0762
HMALDLNEDEKLLVELIEKAGGTAGLGELKEASGLSGKKWDKTTKNLSKEGLIKVEKNESGLWVHLT | 0.0861
HMALDLPVKRVKGKEYYYYKVKKGESLYGISKHLGLPLDSIVKSNPSVADGVRKGDMLLFPLEEYT | -0.702
HMALKQADFDFIRQMIQQRAAIVLDDNKHYFVESRLGPVVEETGSKSLDQLIDQLRSSSNSLLQQKVTEAI | -0.372
HMALLSDEERIATVFAARLGGYSHQEIYKLLQDRFGPSLPAAYSEKSVLTDLQTALSQVPSL | -0.814
HMALPEHIEPFLRGLGQALAEGDSYEDVQERLLRAYPYLDSTEFQTALARVIFISDLWGRLN | -1.85
HMALPPPELRGATGEAVTALRPAGIALIQGKRYDVLAEGGEWIAAGAAVRVRDIRNGHLIVSDA | -0.268
HMALRFMAYGRINGTNVHFRTGASASTASLGRYSRGTEFGVYDKIGGWYRVRLLSTGQEGYVYSRYLTLTG | -2.53
HMALSGTVQNFAGGIMILIFRPFKTGDYIEALGYFGKVSEVNIVSTKLRTFDNKTIILPNGALSNGNIQNY | -0.772
HMALSSQQIKDMQSWYGTKADGIWGSKSTTAAGGRDAGAAYSLYSSNKGRYSSYTDYMSYGGG | 0.341
HMALSTRERMSFVLEVLKEKEFIPFVDLFSPEEGRAGVVVTFLALMELMKDSLIEIVQTKNFGEIHVRARL | -0.316
HMALTQEQLGQRLQDARKSVALTQQEVAEDLGLSRESLAQIEAGSRSVNSLEIVRLARLYGRSLSSILLE | -0.893
HMALYSEQVSEIEKALMSLPPKYQLVMLLLYAEDLKYEQIAEILDEPIGTVKTKIHRARKILKERF | -0.147
HMAMDSGELEAIVDRLISEHPDDWAALTAGDDRERKKKSGFFVGEVMKATRGQADGRAVIELLASRSA | -0.0771
HMAMDYTVVHSDRRTIAIQIQRDGRVVVRAPYAATAEDIRRVVDSHRDWVEKTVRRQQEQLAAS | -0.985
HMAMNITQRHQEILAVIKQEKHITVSEISKLLGVSEVTIRKDFNYLEEKNLIYRHHGGASLNN | -2.78
HMAMPQPVARALHRLGQDISAARRMRRLSQEDLAQRIGTSLSTVRRMEDGYPGTALHTFLRALHML | -0.552
HMAMSDFDALSNRISTLSQGRASAVRMKDGIVSLVLDIGGLSAEERKAMTAAIEGEGRGYPSVTQVRILET | -0.15
HMANAGKFDSDMGEKINFPGNRVSLTPSELEAARELAAIMGDRFFSQLIPTTSKVTVTEMLQSLK | 0.745
HMANGTVKWFNTTKGFGFIAPETGGKDVFVHISAVERSGLTGLADDQKVTFDVEAGRDGRESAVNLAL | 0.0695

Sequence | soluble fraction (log2)
HMANKTVPNVSGKTVAEARAIIENQSLQVGEEKEEYSDSVAEGYIIRTNPTAGSQKKEQSKIDLVVSKG | 0.128
HMANLDSLIKKVGQYAKDKQSISVDGIKKDLSIDKDMVKEALAELLKIGVVDKPDEAGQYKVIM | 0.51
HMANPMFAEIKKVQKQLNEMGYQAGPADGLWGNKTENAVKLLLSDNNLKWDGTFDQNEIKIIEEIFLSND | -0.241
HMANPRLEYFLSNITPDWNEFSPELKNQLLIENADPYKLEQYILQVSPDMYIEEQNAPGTVRQMAGDITG | 0.137
HMANSANARKSLVSKLIAGGKIASQSDLVKALKKQGIVVTQGTASRDLEDIGAIRVRNSEGEIVYALT | 0.0457
HMANSDEEVLNKISTKAPTFNELINKIKEFDDTKEINDIWLDVYRYYITDEEYKEIAKKVITGLTYTNQ | -0.386
HMANSLLVTAQAGGQKLFNFLKRSLHAENNEIHRWIRTGQVRINKKRTKAFDIVHENDEIRIPPFALNR | -0.444
HMANSREIPKLAGIEQEEAVKQLLDLDLKPVIEEITDDDTDAGDVVRTDPAAGEHVAVDTEITVFISIG | -0.987
HMANVQLAKNLKTLRKKYNYTQQDVSTFLNITRQAYSHYEQALREPDLNTLVHLSRFYQVTLDELI | -4.33
HMANYHDIAADLRSKINHGFYEEEKKLPKQSELAADYQTSRVTIQKALNILQMEGIIYGKKGTGTFIRDSY | -0.32
HMANYTVNAYNNGGTGGSVNMRSGPSTNDGIVVRVPHGATVTGTKSGTWSYMTYNTYTGYMMSVYLDEQS | -1.57
HMAPAPYLVKVTANKLNIRSGPGTNYKIQGAITDKGTYTIVDTQGRWGKLKSGAGWIYLNYTKK | -1.98
HMAPASADQLIDQLNEKVKAKDDKGVAALLTAAQTKMAELAQKDPKEAQAYVAKLQQWMQSNSENIKAALK | 0.439
HMAPAYELTEEETKIIEILKANENIDLNELKSQAALSGKKWDKSMKNLAKYNLTKVTVDGDAKTVAYLA | 0.164
HMAPELSGEKLWDAQDVAMFLRVKPTTVWSYVSRDGFPAPVSQAGRAGMWSEPLVVQWYLSRPG | 0.154
HMAPEPFILSVDADGKYYIDDLEKTKQEILIYATALYQEKPTTDFLVRGDKSAAYNDVLQAMVVLKE | 0.325
HMAPETALQILEQIQINPKVTMTDLANLTGYSRRWVAQTMKQLQELNVIKRVGSTKTGYWEIIA | -0.576
HMAPGSKAEIPEDLMKVINKDPKMKAFVATLNKANIMAISFRLSTAKKPETRERRFNLILETLKRGEKF | -3.16
HMAPKVTLNETETAIFEKMQQEKQLLLSELRTHFDISNKLWDTSIKTLTKNQLLTVSKEADLLWIKL | -1.34
HMAPLAVIFPEPWRGMIAPEKLEGLTQALSLNPRPGYQHDPTRRYGVSLDGLDVRFTIDGDTLTVVEVVT | -1.64
HMAPNKLQQQEVWTKALPLLQQMIMTIRQIDAAGGDSSPERELLEETAARFDETLDVERFLP | -0.339
HMAPPPLAGAREALREQIRRGSLSARRGFDAYADALGLPAGTRGAHPIFAALQRLDYPQALRLLDQEPT | -0.0614

Source: the domain aggregation screens of Martell et al. (2025)
